± gives the uncertainty stated by the source.
Experiment: amyloid nucleation score (Sup35N fusion, yeast selection) (log enrichment); library NNK3; higher = more nucleation; inactive = no reads after selection
Method in brief: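 Sup35N fusions to peptides of 20 random codons were expressed in psi-negative yeast, induced 24 hours with 100 μM copper sulfate, and grown 7 days at 30°C on medium lacking adenine and uracil. Input and output plasmid inserts were sequenced by Illumina. The nucleation score is the DiMSum log enrichment of output over input reads, centred on the mode score of non-aggregating sequences. Sequences with under 100 input reads were excluded.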

Substance	amyloid nucleation score
SWASQWLFTPLSTVRSYIIL	inactive
SWFGGRDYYKMHIVSG	inactive
SWFSVLLGLRTSRVIANSTY	inactive
SWMDRILVRYWVVLDNRNFV	inactive
SWNTL	inactive
SWSRYYCLYCG	2.97 ± 0.068
SWVGTG	-0.331 ± 0.84
SWVRMYIGEFLVSRCQMWST	inactive
SWVRTGFL	inactive
SYCATCHIPRENMSLQCVME	1.3 ± 0.1
SYDFIMVLPHEDRIDIVQQF	inactive
SYFDIFGTTDQVSVKSRMCT	inactive
SYFFVIQGQLGCITGVDFIW	inactive
SYGLFR	inactive
SYGTSGCRRLVLWTYDSKFI	inactive
SYISNP	inactive
SYLCVATWSCPHYVGFSQHI	inactive
SYMGHV	0.506 ± 0.43
SYNYRGADRWLT	inactive
SYRAARNFHMFLLYWHGTRW	inactive
SYRCMSESRFYYFLSCHARR	inactive
SYRPMHTDGLSLYSRQNLSY	inactive
SYSFEYNHSDKFVSLYYMDI	inactive
SYSHYFILHHLRDSELSHCS	inactive

Substance	amyloid nucleation score
SYSIWSLLEIDF	inactive
SYSSMCLPKNTKAHASWC	inactive
SYVDLYVGWLNSWMYVMRSA	inactive
TACMRNVRTNIGKHTSQYLH	inactive
TADIESMIMFNGRVPGHLSV	inactive
TAESKRH	inactive
TAKPYRDDNNGYSAYIHPCS	inactive
TAMYVMSFCW	inactive
TAQFDNSCSGLQHVVVNK	inactive
TASTQSPYHFYCRV	inactive
TCAIPHLKCSFLLYFGQYGC	inactive
TCFLVFTCVVGV	inactive
TCHLPAQSLLFIRCSTKAGV	inactive
TCKCGSALK	0.384 ± 0.21
TCLWARSPVLEDFEYGLHGS	inactive
TCMYNMVVGSLVGRWNC	1.4 ± 0.13
TCRITP	inactive
TCSDDCFLMKWYEDIRSVVT	inactive
TCSRLVDQFNTFGTVY	inactive
TCTEGMGCPMSKAARVLLTR	inactive
TCVWRHAWQSGAHRVVRLAW	inactive
TCYSIERFACY	inactive
TDCFGLMSSALP	inactive
TDELYWLKDFLYGFYNMKSP	inactive

Substance	amyloid nucleation score
TDFFG	inactive
TDFPYK	-0.12 ± 0.53
TDRFNAFSWAVASGFVDFDG	inactive
TDSPLRLKRDYSPNSFCRSG	0.005 ± 1.1
TDTRNINV	inactive
TDTTSIMNWEDRPISSLKVD	inactive
TELFALGYRSFCARTCATHD	inactive
TEPIWWEFGCKYHGYISARS	inactive
TESCVDSMVAFHNLPYLFRL	inactive
TESPNYLYRI	inactive
TFALFLGWIMPTSGGDTGYY	0.037 ± 0.39
TFFSYSRTALGATYYSLIIC	inactive
TFGAVTCMSRCVKSSYNLKW	1.35 ± 0.088
TFIFDFAAFMNMVNGFSVLG	2.23 ± 0.088
TFIFVLVSC	inactive
TFLALHNNQQLV	inactive
TFLYFNVLRIHFVASS	inactive
TFNRWCLVFLLMHNVLVCEW	0.185 ± 0.33
TFRYCTVLMFAVSFWQFHRC	inactive
TFSNYALNVSAYRVDIFEML	0.979 ± 0.14
TFSPVGMISLYCYGT	-0.065 ± 0.45
TFVNLFIVPGKGQSVTGGCE	1.45 ± 0.13
TFYVLGLDYTWLSATSGDGS	inactive
TGARMVLCIFGIYSMYTLHN	1.99 ± 0.074

Substance	amyloid nucleation score
TGDRIWTIGFFGEPNGVLKG	inactive
TGMVCNLTWVLYLMLMNRTF	inactive
TGSSTDLSNYNGLGYLLNNS	0.479 ± 0.2
TGVNFGRLLLISRSVLGVC	inactive
TGYPGPIKFRRIFYANYYSF	inactive
THANEGRCYMVSSVMEVSPL	inactive
THESATSYLISGFGIGFIWC	1.49 ± 0.089
THFNGEFWALSTVCMWGGRV	0.06 ± 0.69
THFQEPLSESGDRCLDDGYL	inactive
THHWKFGSNPSFR	inactive
THLSVEFS	inactive
TIACS	inactive
TIASVKLEFALPPSHLPLGV	inactive
TICRCRWGIRPYLALCIHYS	inactive
TIEQCGLS	inactive
TIFLSSRGVILYTVSCYKFV	inactive
TIGFIGWWGVFYDTDWLRI	-0.566 ± 1.4
TIGSAWFGKLGDGLALFGLF	inactive
TILWFSSNETFYAGIHRSCP	inactive
TIRYRIQVNSCHESVIAGYT	inactive
TISLHFLGTADKPYLSWVAN	inactive
TITFSWLAYAVGMQPDNNEV	1.26 ± 0.12
TKGTKDRPPYTVVRLQYGNS	inactive
TKNRVYQWMSLSGM	0.828 ± 0.12

Substance	amyloid nucleation score
TKRCKYCTKGNVQTHTWVAF	0.466 ± 0.23
TKTISGHCPVLMSVFWSMAL	inactive
TKYCSLPHDQDCVHKFITTV	inactive
TLARQWSDP	inactive
TLCSHYYVV	inactive
TLFDRFWVLWNEKWESSGKY	inactive
TLGGEMQFVKMFCLLYFNCG	inactive
TLGLAVFDNSMDRWYEDVKK	inactive
TLGVGP	inactive
TLMGLESVSVYFSVGFLSVY	inactive
TLNIFVVSFNDYWVSVIIKD	2.46 ± 0.066
TLSFCWWRFMLVCRGVGGGR	inactive
TLTYTKYYHFNCNRTLYESV	0.665 ± 0.16
TLVCEDIVYRDLLITSFLYS	0.589 ± 0.087
TLVVMEIIQLLSFSHGPFI	inactive
TLWYSYHINVPYCL	inactive
TLYRGDKTRNFAMGIKLCMT	inactive
TMCHGDDLRNHCYSETNSFR	inactive
TMGGNVIV	inactive
TMGVSLHHIKGPFWSVIYCI	0.481 ± 0.32
TMHKGLVVMF	inactive
TMLRFIYSYDAFRR	0.931 ± 0.22
